Measured values: US12012446B2, “Epstein-Barr virus antibodies and uses thereof” (priority 2017, dated 2024)

How the values were obtained:
[1] = biological target: T1, EBV gp350 20-mer linear peptides (gp350 regions) (Epstein-Barr virus, UniProt P03200); type: binding
T1 construct: purchased GenicBio; host or cells: chemical solid-phase synthesis
Method: Forty-five sequential 20-mer linear peptides, covering the whole sequence of gp350 (GenBank: NC_007605.1), with an exception of aa 862-881, were synthesized using a solid phase method and cleaved using a low-high hydrogen fluoride method by the GenicBio, as previously described (58).
The binding of anti-gp350 mAbs to 45 synthesized 20-mer sequential peptides covering the total length of gp350 was analyzed using indirect ELISA as described (58). Briefly, immunoplates were coated with 50 μl of 10 μg/ml EBV gp350 peptides (forty-five 20-mers) diluted in PBS and incubated overnight at 4° C.; 0.5 μg/ml recombinant EBV gp350 ectodomain protein was used as a positive control. After washing three times with washing buffer (PBS containing 0.05% (v/v) Tween 20), plates were blocked with 100 μl washing buffer containing 3% BSA (blocking buffer), incubated for 1 hour at room temperature, and washed as above. Ten μg/ml purified mAbs were added to each well in triplicate and incubated for 2 hours at room temperature. […] The plates were washed as described above, followed by incubation with goat anti-mouse IgG or goat anti-human IgG HRP-conjugated secondary antibody (1:2,000 diluted in PBS) at room temperature for 1 hour. The plates were washed again and the chromogenic substrate ABTS was added. The reaction was stopped using ABTS peroxidase stop solution. The absorbance was read at an optical density of 405 nm using an ELISA plate reader.
The peptide library, consisting of 20-mer peptides, covered the entire gp350 protein, with the exception of AA 862-881 (Table 9).
Purified recombinant gp350 ectodomain was used as a control to validate the binding activity for all of the antibodies used. The overall gp350 sequence was divided into nine different regions consisting of ˜100 AA (FIG. 7).

[2] = test system: goat anti-human IgG; experiment: ELISA for reactivity to anti-human IgG (HAMA testing); type: binding; conditions: 10 μg/ml antibody on gp350-coated plates
Description: ClustalW alignment of heavy chain (i) and light chain (ii) variable region amino acid sequences. Murine 72A1 heavy chain and light chain AA sequences are represented by SEQ ID NOs: 178 and 179, respectively, and humanized 72A1 heavy chain and light chain AA sequences are represented by SEQ ID NOs: 180 and 181, respectively. Regions of identical sequence are represented by *. Regions of similarity are represented by :. […] FIG. 4C: ELISA determining the reactivity of humanized 72A1 to murine IgG. Soluble EBV gp350 protein was used as the target antigen at 0.5 μg/ml. […] Bound antibodies were detected using HRP-conjugated anti-mouse IgG or anti-human IgG (1:2,000). […] Unstained cells and cells stained with secondary goat anti-mouse or anti-human conjugated to AF488 alone were used as negative controls.
ELISA was performed to determine the reactivity of chimeric and humanized antibodies to murine IgG. Soluble EBV gp350 or gH/gL protein was used as the target antigen at 0.5 μg/ml. […] Bound antibodies were detected using HRP-conjugated anti-mouse IgG or anti-human IgG (1:2,000). […] To determine whether chimeric and humanized anti-gp350 retained the ability to recognize linear epitopes on gp350, lysate from CHO WT cells and CHO cell stably expressing gp350 were analyzed by western blot analysis.

[3] = test system: EBV; conditions: small phase 1 clinical trial; cited from earlier work

T1 sequence (P03200 142-161): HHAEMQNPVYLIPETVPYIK

| Molecule | recognition of gp350 peptides of the principal neutralizing epitope (142-161) [1] | reactivity to goat anti-human IgG over the background [2] [fold] | patients developing a hypersensitivity reaction [3] | patients who developed human anti-mouse Abs (HAMA) [3] | short-term protection against acquiring EBV after transplantation [3] |
| --- | --- | --- | --- | --- | --- |
| h72A1: humanized 72A1 IgG1; heavy and light chain SEQ ID NOs: 180 and 181 (antibody, V domains shown) VH: EVQLVESGGGLVQPGGSLRLSCAASGSSFTDYTMNWMRQSPGKGLEWIGLINPYNGGTRYADSVKGRATLSLDKSKNTAYLQMNSLRAEDTAIYYCAGGLRRVNWFAYWGQGTLVTVSS VL: DAQLTQSPILLSASVGDRVTITCRSSTGAVTTSNYANWVQERTNGSFRGLIGGTNNRVPGVPSRFSGSLSGDDATLTISSLQPEDEADYFCVLWHSNHWVFGAGTKVEIKR | recognized both native gp350 as well as gp350 peptides that constitute the principal gp350 neutralizing epitope (142-161) | 2100 | – | – | – |
| m72A1: EBV anti-gp350 neutralizing mouse antibody purified from HB168 hybridoma (ATCC); SEQ ID NO: 100 / 101 (antibody, V domains shown, heavy chain mAb 72A1; light chain mAb 72A1) VH: PELVKPGTSMKISCKASGSSFTDYTMNWMKQSHGKNLEWIGLINPYNGGTRYNQKFKGKATLTLDKSSSTAYMEVLSLTSEDSAVYYCAGGLRRVNWFAYWGQGTLVSVSAAKTTPPSVYPLAPGSAAQTNSMVTLG VL: QAVLTQESALTTSPGETVTLTCRSSTGAVTTSNYANWVQEKPDHLFTGLIGGTNNRVPGVPARFSGSLIGDKAALTITGAQTEDEAIYFCVLWHSNHWVFGGGTKLTVL | – | – | one | all 4 | 3 out of 4 |
